B1: Human guanylate kinase (hGUK1) (Homo sapiens) (protein)
chain: MSGPRPVVLSGPSGAGKSTLLKRLLQEHSGIFGFSVSHTTRNPRPGEENGKDYYFVTREVMQRDIAAGDFIEHAEFSGNLYGTSKVAVQAVQAMNRICVLDVDLQGVRNIKATDLRPIYISVQPPSLHVLEQRLRQRNTETEESLVKRLAAAQADMESSKEPGLFDVVIINDSLDQAYAELKEALSEEIKKAQRTGA
B2: Hint1 (Homo sapiens) (protein)
chain: MADEIAKAQVARPGGDTIFGKIIRKEIPAKIIFEDDRCLAFHDISPQAPTHFLVIPKKHISQISVAEDDDESLLGHLMIVGKKCAADLGLNKGYRMVVNEGSDGGQSVYHVHLHVLGGRQMHWPPG

Legend:
[1] = substrate: Nc1nc2c(ncn2[C@@H]2O[C@H](COP(=O)(O)O)[C@@H](O)[C@H]2O)c(=O)[nH]1; assay: hGUK1-mediated phosphorylation, coupled spectrophotometric assay; type: biochemical, human; conditions: other: hGUK1, 37°C
[2] = substrate: COc1nc(N)nc2c1ncn2[C@@H]1O[C@H](COP(=O)(O)N[C@@H](C)C(=O)O)[C@@H](O)[C@@]1(C)F; assay: Hint1 activity assay; type: biochemical; conditions: other: Hint1, 37 °C, pH 7.2

| Protein | Km [1] | kcat [1] | kcat/Km [1] | Km [2] | kcat [2] |
| --- | --- | --- | --- | --- | --- |
| B1 | 19.1 ± 4.5 µM | 74.7 ± 17.6 s⁻¹ | 3.9e+06 M⁻¹ s⁻¹ |  |  |
| B2 |  |  |  | 445 ± 182 µM | 0.0573 s⁻¹ |
